This data set in a line: protein stability index of a GFP-peptide fusion (GPS, HEK-293T) (PSI 1-6); higher = more stable. Particulars: c terminus: a fixed tail appended.

± gives the standard deviation.
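Further: 24-mer peptide tiles fused after GFP, lentivirally expressed, FACS-sorted into six equal bins by GFP/DsRed ratio, decoded by Illumina sequencing, PSI is the read-weighted mean bin number.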

Regarding YPSLQAMGWFNNEVGSMKIQSGAW [CRYBA1], the protein stability index came to 1.99 ± 0.41 (treatment: DMSO) and 2.45 ± 0.17 (treatment: MLN4924 1 uM, 8 h).
Consider LQISEELLSRNQLSTAASLGPSGL [LCOR], for which the protein stability index runs as follows: (treatment: DMSO) 3.5 ± 0.14; (treatment: MLN4924 1 uM, 8 h) 3.35 ± 0.41.
For MSGDGATEQAAEYVPEKVKKAEKK [CSTF3], the protein stability index was 5.52 ± 0.18 (treatment: DMSO) and 5.65 ± 0.15 (treatment: MLN4924 1 uM, 8 h).
Turning to GESYESCCPTSREAAVEALELLGA [FEM1A], the protein stability index is, setting by setting: (treatment: DMSO) 4.58 ± 0.12; (treatment: MLN4924 1 uM, 8 h) 4.66 ± 0.2.
The like results for VDIKPANMEELTEVITAAEFHPHH [PPP2R2B] were, in that order, 4.47 ± 0.34 and 4.42 ± 0.58.
On the same counts, the results for IVSHFQKLFDVPSLNGVYPRMNEV [CEP70] are 2.46 ± 0.82 and 2.56 ± 0.53.
Turning to NVRDRDSGRNGEVSLDISPDLPFQ [PCDHGC5], the protein stability index by setting is: (treatment: DMSO) 4.76 ± 0.42; (treatment: MLN4924 1 uM, 8 h) 4.59 ± 0.22.
As for RGLEPGKGRHHRGRGGEPRAYFMS [CHGB], the protein stability index reads like this: (treatment: DMSO) 4.36 ± 0.092; (treatment: MLN4924 1 uM, 8 h) 4.24 ± 0.13.
For the sequence LEDLERELDEPQHEMVAHRHRQEV [ZSCAN9], the protein stability index by setting is: (treatment: DMSO) 5.56 ± 0.12; (treatment: MLN4924 1 uM, 8 h) 5.47 ± 0.072.
The like results for EDGFGEHPFYHCLVAEVPKEHWTP [SAT1] were, in that order, 3.05 ± 0.22 and 3.12 ± 0.27.
On to ARDCFATGRHYWEVDVQEAGAGWW [TRIM14], for which the protein stability index reads like this: (treatment: DMSO) 2.42 ± 0.22; (treatment: MLN4924 1 uM, 8 h) 2.41 ± 0.3.
With YVKYQVAIHQDPPDECGKTEFTRF [ATE1], the protein stability index amounted to 2.4 ± 0.2 (treatment: DMSO) and 2.56 ± 0.5 (treatment: MLN4924 1 uM, 8 h).
For ELKEKEATLCLEFLLQNDANPSIR [ANKRD44], the protein stability index by setting is: (treatment: DMSO) 3.19 ± 0.096; (treatment: MLN4924 1 uM, 8 h) 3.25 ± 0.31.
For the sequence TEITELRRTLQGLEIELQSQLSMK [KRT13], the protein stability index by setting is: (treatment: DMSO) 2.78 ± 0.27; (treatment: MLN4924 1 uM, 8 h) 2.85 ± 0.18.
On to AYEFNPELVLVSAGFDAARGDPLG [HDAC6], for which the protein stability index runs as follows: (treatment: DMSO) 3.11 ± 0.58; (treatment: MLN4924 1 uM, 8 h) 3.58 ± 0.23.
Turning to EAIKGLNGQKPLGAAEPITVKFAN [ELAVL3], the protein stability index runs as follows: (treatment: DMSO) 3.94 ± 0.22; (treatment: MLN4924 1 uM, 8 h) 4.06 ± 0.28.
The like results for SPLLETFSDLQVYSYRRLGEEALS [SLC22A15] were, in that order, 2.44 ± 0.31 and 2.27 ± 0.23.
For the sequence VGRTGCFIVIDAMLERIKHEKTVD [PTPRD], the protein stability index was determined as 2.25 ± 0.34 (treatment: DMSO) and 2.54 ± 0.26 (treatment: MLN4924 1 uM, 8 h).
With EKKESLGAAQEALSIQLQPKETQP [ZNF232], the protein stability index by setting is: (treatment: DMSO) 5.35 ± 0.35; (treatment: MLN4924 1 uM, 8 h) 5.5 ± 0.19.
On to LGVALFTMLAGHYPFQDSEPVLLF [TRIB3], for which the protein stability index was determined as 2.94 ± 0.59 (treatment: DMSO) and 2.93 ± 0.27 (treatment: MLN4924 1 uM, 8 h).
On the same counts, the results for PRAVFVLLEERRPADSAQLLSLNS [TFE3] are 2.29 ± 0.12 and 2.4 ± 0.2.
For the sequence GPCEGPSKEDKDLDSSEGSSQEDE [SPANXN3], the protein stability index runs as follows: (treatment: DMSO) 5.68 ± 0.14; (treatment: MLN4924 1 uM, 8 h) 5.68 ± 0.14.
Consider YQHLEEDMKSLKQVLEMKNQQIHE [MTUS2], for which the protein stability index is 4.07 ± 0.11 (treatment: DMSO) and 4.27 ± 0.36 (treatment: MLN4924 1 uM, 8 h).
On the same counts, the results for ERVVINISGLRFETQLKTLAQFPN [KCNA1] are 2.47 ± 0.29 and 2.32 ± 0.55.
The like results for VTIPAGATHILVRQQGNPGHRSIY [ADAMTS4] were, in that order, 2.51 ± 0.12 and 2.32 ± 0.52.
On to RDASDPLAGAALEPAGGGRSREAR [SMAD6], for which the protein stability index runs as follows: (treatment: DMSO) 5.39 ± 0.19; (treatment: MLN4924 1 uM, 8 h) 5.44 ± 0.2.
Turning to MEGTPTIKSKKKLLQIIDTTLLKC [VPS39], the protein stability index turned out to be 2.25 ± 0.24 (treatment: DMSO) and 2.36 ± 0.25 (treatment: MLN4924 1 uM, 8 h).
On the same counts, the results for IEPRERAKFKRKYKVKLVEKRAFR [NOP53] are 2.87 ± 0.14 and 3.15 ± 0.32.
On to PPARGTLKTSNLPEELRKVFITYS [TRAF3IP2], for which the protein stability index by setting is: (treatment: DMSO) 2.53 ± 0.37; (treatment: MLN4924 1 uM, 8 h) 2.53 ± 0.12.
As to PKPCAGNQGTQITVEDLFYNIATR [MLH1], the protein stability index came out at 2.85 ± 0.32 (treatment: DMSO) and 2.97 ± 0.41 (treatment: MLN4924 1 uM, 8 h).
On to DFGACDGGLLTGNEKITMQNLNDR [KRT13], for which the protein stability index runs as follows: (treatment: DMSO) 4.57 ± 0.33; (treatment: MLN4924 1 uM, 8 h) 4.53 ± 0.37.
On the same counts, the results for ERQVLPDPEVLEAVGDRQDGLREQ [PBXIP1] are 5.54 ± 0.26 and 5.64 ± 0.1.
With LEPMKSRAPQLHLEYRFYEQLGSG [CSNK1G3], the protein stability index runs as follows: (treatment: DMSO) 2.91 ± 0.2; (treatment: MLN4924 1 uM, 8 h) 2.63 ± 0.47.
Take LEECLRLLEATCPFGENAEFPADI [NFE2L1]: the protein stability index is, setting by setting: (treatment: DMSO) 3.61 ± 0.68; (treatment: MLN4924 1 uM, 8 h) 3.61 ± 0.23.
TPISNEVEMESEEQIAERKRKMVS [KMT2E]: the protein stability index came out at 5.02 ± 0.36 (treatment: DMSO) and 5.05 ± 0.18 (treatment: MLN4924 1 uM, 8 h).
On to MAAMETETAPLTLESLPTDPLLLI [FBXO3], for which the protein stability index (treatment: DMSO) worked out at 3.44 ± 0.25 and the protein stability index (treatment: MLN4924 1 uM, 8 h) turned out to be 3.43 ± 0.18.

These data come from the supplement of paper PMC10567573.
